Laboratory results taken from publication PMC2104711.

Tests used:
Conditions in all cases: remark: other sources report otherwise
[1] = biological target: T1, human XLF (1–233) with N-terminal His6 tag (XLF410) (human), Q9H9Q4; experiment: cross-linking
T1 chain: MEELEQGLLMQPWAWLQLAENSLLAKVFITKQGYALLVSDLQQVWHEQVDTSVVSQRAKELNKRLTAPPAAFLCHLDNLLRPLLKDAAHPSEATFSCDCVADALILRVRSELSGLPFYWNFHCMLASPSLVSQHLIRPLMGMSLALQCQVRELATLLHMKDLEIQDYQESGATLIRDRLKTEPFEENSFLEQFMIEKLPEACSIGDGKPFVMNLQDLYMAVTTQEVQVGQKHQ

[2] = biological target: T2, human XLF/Cernunnos (1–233), tag-free (cleaved XLF441) (human), Q9H9Q4; experiment: dynamic light scattering
T2 chain: T1 chain

[3] = biological target: T3, SeMet-substituted human XLF (1–233) (SeMet-XLF441, cleaved) (human), Q9H9Q4; experiment: crystal structure
T3 chain: T1 chain

B1: human XLF (1–233) with N-terminal His6 tag (XLF410), Q9H9Q4 1-233 (domain or fragment)
chain: T1 chain
- stoichiometry N [1]: 2

B2: human XLF/Cernunnos (1–233), tag-free (cleaved XLF441), Q9H9Q4 1-233 (domain or fragment)
chain: T1 chain
- stoichiometry N [2]: 2

B3: SeMet-substituted human XLF (1–233) (SeMet-XLF441, cleaved), Q9H9Q4 1-233 (domain or fragment)
chain: T1 chain
modifications: here or on the partner: selenomethionine-substituted (SeMet in place of methionine); selenomethionine-substituted (SeMet in place of methionine)
- stoichiometry N [3]: 2
